We go through two molecules from US20040248275A1, “Engineered bacterial aggregates” (priority 2003, published 2004).

Type in all cases: cell-based
In data set [1] the test system is taxonomically distinct species of bacteria. Kind of data set: Lectins tested for potential to construct bacterial aggregates. The source says:
We have selected the lectin Concanavalin A (ConA) as the most preferred (Sigma, Poole, Dorset, UK). Other lectins tested for their potential in the present invention were Wheat Germ Lectin (WGA), lectin from Limulus polyphemus and Peanut Agglutinin (PNA). […] However, ConA was the only lectin that strongly reacted with, and aggregated, over 15 taxonomically distinct species of bacteria. ConA was subsequently deemed the most preferable for use. However, any lectin is suitable for the invention as long as the lectin is capable of agglutinating the desired species.
(§1) Assay approach: Six lectins were chosen to discover their suitability for the aggregation of different species of bacteria. These were Concanavalin A, Lentil lectin, Pseudomonas aeruginosa lectin, peanut lectin, Limulus polyphemus lectin and wheat germ lectin.
(§2) The ability of the lectins to aggregate bacterial cells was studied by mixing cells at an O.D. of 0.5 at 650 nm with different lectins at different concentrations. The extent of aggregation was determined by a semi-quantitative approach. […] Lectins that caused cellular-aggregation to give small flocs in a turbid suspension were given a score of “+”. […] Lectins that caused cellular aggregation to give easily visible aggregates in a clear solution were given a score of “+++”.

For the next data set, the system named is S. plymuthica. Kind of data set: Lectin aggregation of bacterial cells (microtitre wells, semi-quantitative score). Further details: key: Where the addition of lectins did not cause the aggregation of cells, a score of “0” was assigned; Lectins that caused cellular-aggregation to give small flocs in a turbid suspension were given a score of “+”; A score of “++” was given to lectin-cell aggregate mixes that resulted in large aggregates seen by eye in a turbid suspension; Lectins that caused cellular aggregation to give easily visible aggregates in a clear solution were given a score of “+++”. Particulars: cells O.D. 0.5 at 650 nm. On the procedure: as §1, §2

A further data set deals with E. brevis. Described as above. Details: key: Where the addition of lectins did not cause the aggregation of cells, a score of “0” was assigned; Lectins that caused cellular-aggregation to give small flocs in a turbid suspension were given a score of “+”; A score of “++” was given to lectin-cell aggregate mixes that resulted in large aggregates seen by eye in a turbid suspension; Lectins that caused cellular aggregation to give easily visible aggregates in a clear solution were given a score of “+++”. The settings on record: cells O.D. 0.5 at 650 nm. On the procedure: as §1, §2

The test system of another data set is K. oxytoca. Described as above. Further details: key: Where the addition of lectins did not cause the aggregation of cells, a score of “0” was assigned; Lectins that caused cellular-aggregation to give small flocs in a turbid suspension were given a score of “+”; A score of “++” was given to lectin-cell aggregate mixes that resulted in large aggregates seen by eye in a turbid suspension; Lectins that caused cellular aggregation to give easily visible aggregates in a clear solution were given a score of “+++”. The settings on record: cells O.D. 0.5 at 650 nm. On the procedure: as §1, §2

Another data set concerns P. putida. The description is as above. Details: key: Where the addition of lectins did not cause the aggregation of cells, a score of “0” was assigned; Lectins that caused cellular-aggregation to give small flocs in a turbid suspension were given a score of “+”; A score of “++” was given to lectin-cell aggregate mixes that resulted in large aggregates seen by eye in a turbid suspension; Lectins that caused cellular aggregation to give easily visible aggregates in a clear solution were given a score of “+++”. Particulars: cells O.D. 0.5 at 650 nm. The protocol:
as §1, §2

In data set [2] the test system is Pseudomonas sp. Strain 2881. Kind of data set: Titration of ConA against bacterial suspension, aggregate size measured. Particulars: within 5.0% S.E. On the procedure:
Aggregates of different size were constructed by titrating cona against suspensions of bacteria and observing the formation of aggregates. These were visible by eye as well as by optical microscope (FIG. 1).
Aggregate size was measured. A parabolic relationship between the ratio of ConA and bacterial density was observed (Table 3). […] This hypothesis reflects that established for antibody:antigen precipitation reactions.
Within an optimal range of […] and 0.6 mg/ml ConA, bacterial aggregates of 10 to >100 μm diameter could be reproducibly formed with a lectin excess that enabled further bacteria to be sequestered to the surface of the aggregate. The aggregates could be readily disassociated by the addition of approximately 50 mM maltose, glucose or sucrose to ConA, followed by 30s of gentle pipetting. This is ideal for the accurate enumeration of viable bacteria based upon CFU measurement on nutrient agar.

For Concanavalin A, in data set [1], the “taxonomically distinct species of bacteria strongly reacted with, and aggregated” value is “over 15”. In addition, the “extent of aggregation (score)” value was “+” in the data set with S. plymuthica (lectin 1 × 10^−1 mg/mL); “+” in the data set on S. plymuthica (lectin 1 × 10^−2 mg/mL); “+” in the data set on S. plymuthica (lectin 1 × 10^−3 mg/mL); “+” with E. brevis (lectin 1 × 10^−1 mg/mL); “+” in the data set on E. brevis (lectin 1 × 10^−2 mg/mL); 0 in the data set on E. brevis (lectin 1 × 10^−3 mg/mL). Besides, the “extent of aggregation (score)” value is “++” in the data set on K. oxytoca (lectin 1 × 10^−1 mg/mL); “+” with K. oxytoca (lectin 1 × 10^−2 mg/mL); 0 in the data set on K. oxytoca (lectin 1 × 10^−3 mg/mL); “+++” with P. putida (lectin 1 × 10^−1 mg/mL); “++” in the data set with P. putida (lectin 1 × 10^−2 mg/mL); “+” with P. putida (lectin 1 × 10^−3 mg/mL). Moreover, the Size of aggregate entry in data set [2] (Amount of ConA 0.001 mg/ml) is “No aggregation”; in data set [2] (Amount of ConA 0.01 mg/ml), 11.2 μm; in data set [2] (Amount of ConA 0.05 mg/ml), 53.4 μm; in data set [2] (Amount of ConA 0.1 mg/ml), 106.7 μm; in data set [2] (Amount of ConA 0.2 mg/ml) it was 91.2 μm; in data set [2] (Amount of ConA 0.4 mg/ml) it was 73.1 μm. Also, the Size of aggregate in data set [2] (Amount of ConA 0.6 mg/ml) is recorded as 55.4 μm; in data set [2] (Amount of ConA 0.8 mg/ml) it was “No aggregation”; in data set [2] (Amount of ConA 1.0 mg/ml), “No aggregation”.

B1: Lentil lectin (protein, UniProt P02870 31-210; P02870 218-269, looked up)
Lectin beta chain: TETTSFSITKFSPDQKNLIFQGDGYTTKGKLTLTKAVKSTVGRALYSTPIHIWDRDTGNVANFVTSFTFVIDAPSSYNVADEFTFFIAPVDTKPQTGGGYLGVFNSKEYDKTSQTVAVEFDTFYNAAWDPSNKERHIGIDVNSIKSVNTKSWNLQNGERANVVIAFNAATNVLTVTLTYP
Lectin alpha chain: VTSYTLNEVVPLKDVVPEWVRIGFSATTGAEFAAHEVHSWSFHSELGGTSSS
Take B1: the “extent of aggregation (score)” value with S. plymuthica (lectin 1 × 10^−1 mg/mL) is given as “+”; with S. plymuthica (lectin 1 × 10^−2 mg/mL), “+”; with S. plymuthica (lectin 1 × 10^−3 mg/mL), “+”; in the data set with E. brevis (lectin 1 × 10^−1 mg/mL), “+”; in the data set with E. brevis (lectin 1 × 10^−2 mg/mL) it was 0; in the data set with E. brevis (lectin 1 × 10^−3 mg/mL) it was 0. Moreover, the “extent of aggregation (score)” value in the data set with K. oxytoca (lectin 1 × 10^−1 mg/mL) was “++”; in the data set on K. oxytoca (lectin 1 × 10^−2 mg/mL) it was “+”; with K. oxytoca (lectin 1 × 10^−3 mg/mL) it was 0; with P. putida (lectin 1 × 10^−1 mg/mL), “+++”; with P. putida (lectin 1 × 10^−2 mg/mL), “++”; with P. putida (lectin 1 × 10^−3 mg/mL), “+”.
